Results reported in publication PMC5756113 (Peptides, 2017).

Assays:
[1] = mouse, in vivo
[2] = mouse, in vivo; remark: listed apart in the source
[3] = in vivo, cited from earlier work

Substance	Average rate of I-PACAP38 transport into whole brain in the No-Sham Controls [1] [µL/g/min]	Average rate of transport into the whole brain for all groups [1] [µL/g/min]	Increase in the Vi, CCI versus Sham [1] [fold]	Transport rate in cerebellum compared to the cortices and whole brain [1] [fold]	%Inj/g in cerebellum (average) [2] [%Inj/g]	Amount of I-PACAP38 to enter the brain (value calculated here) [2] [%Inj/g]	I-PACAP38 %Inj/g in the ipsilateral cortex, CCI compared to Sham [2]	Rate of PACAP38 transport across the mouse BBB [3] [µL/g/min]	Amount of I-PACAP38 to enter the brain ([3]; mouse) [%Inj/g]	Vi previously reported ([3]; mouse) [µL/g]	Increase in the rate of transport at 72 hours post-CCI compared to the 2 hour time point [1]	Half-time disappearance of PACAP38 from the blood ([3]; mouse) [min]
I-PACAP38: 38-amino acid form of PACAP (Bachem) radioactively labeled with 125I by the lactoperoxidase method	2.35	2.98	1.4	~2	0.37	0.15	nearly a doubling	2.86	0.119	18.5		
Pituitary adenylate cyclase-activating polypeptide 38 [PACAP38, reference compound]								2.86 ± 0.57			2–3 fold	0.82
